Data reported in patent US9274110B2, “Diagnosis method of active tuberculosis” (priority 2011, dated 2016).

B1: Rv0220: M. tuberculosis Lip family protein Rv0220 (LipC), recombinant; shown not to be a lipolytic enzyme (protein, UniProt P96402 1-403, looked up)
Esterase LipC: MNQRRAAGSTGVAYIRWLLRARPADYMLALSVAGGSLPVVGKHLKPLGGVTAIGVWGARHASDFLSATAKDLLTPGINEVRRRDRASTQEVSVAALRGIVSPDDLAVEWPAPERTPPVCGALRHRRYVHRRRVLYGDDPAQLLDVWRRKDMPTKPAPVLIFVPGGAWVHGSRAIQGYAVLSRLAAQGWVCLSIDYRVAPHHRWPRHILDVKTAIAWARANVDKFGGDRNFIAVAGCSAGGHLSALAGLTANDPQYQAELPEGSDTSVDAVVGIYGRYDWEDRSTPERARFVDFLERVVVQRTIDRHPEVFRDASPIQRVTRNAPPFLVIHGSRDCVIPVEQARSFVERLRAVSRSQVGYLELPGAGHGFDLLDGARTGPTAHAIALFLNQVHRSRAQFAKEVI

Key:
[1] = Activity of rLipC or cutinase on p-nitrophenyl esters (release of p-NP at 410 nm); assay type: biochemical; settings: for Specific Activity, pNP-butyrate (C4): substrate pNP-butyrate (C4); for Specific Activity, pNP-butyrate (C4) / Specific Activity, pNP-caprate (C10) / Specific Activity, pNP-caprylate (C8) / Specific Activity, pNP-laurate (C12) / Specific Activity, pNP-myristate (C14) / Specific Activity, pNP-valerate (C5): 1 mM, Tris buffer pH 8.0, 300 mM NaCl, 4 mM NaTDC, 15 min; for Specific Activity, pNP-caprate (C10): substrate pNP-caprate (C10); for Specific Activity, pNP-caprylate (C8): substrate pNP-caprylate (C8); for Specific Activity, pNP-laurate (C12): substrate pNP-laurate (C12); for Specific Activity, pNP-myristate (C14): substrate pNP-myristate (C14); for Specific Activity, pNP-valerate (C5): substrate pNP-valerate (C5)
[2] = pH-stat, fluorescent and spectrophotometric assays for lipase or phospholipase activity on various lipids; assay type: biochemical
From the text: rLipC activity was also investigated using pH-stat, fluorescent and spectrophotometric assays for various lipids, as well as phospholipids, to detect lipase or phospholipase activity, respectively.

Molecule | Specific Activity, pNP-butyrate (C4) [1] | Specific Activity, pNP-caprate (C10) [1] | Specific Activity, pNP-caprylate (C8) [1] | Specific Activity, pNP-laurate (C12) [1] [U · mg^−1] | Specific Activity, pNP-myristate (C14) [1] [U · mg^−1] | Specific Activity, pNP-valerate (C5) [1] | Long-chain triglycerides (TG) hydrolysis ([2]; cloned and characterized protein, see example 1) | Activity on triglycerides, diglycerides or monoglycerides as substrate ([2]; pH-stat, fluorescent and spectrophotometric assays, whatever the carbon chain length) | Hydrolysis of esters function associated with a fatty acyl chain having more than 10 carbons ([1]; summary of Table 1)
Cutinase F. solani: cutinase from F. solani, comparison enzyme [reference compound] | 382 ± 22 U · mg^−1 | 9 ± 1 U · mg^−1 | 14 ± 3 U · mg^−1 | 1 ± 0.4 | 1 ± 0.2 | 78 ± 0.5 U · mg^−1 |  |  | 
B1 | 133 × 10^−3 U · mg^−1 | 2 × 10^−3 U · mg^−1 | 22 × 10^−3 U · mg^−1 | 0 | 0 | 111 × 10^−3 U · mg^−1 | no long-chain triglycerides (TG) hydrolysis was detected | does not show any activity | not able to hydrolyse
